Measurements from publication doi:10.1101/2021.12.01.470822 (bioRxiv, 2021).
Like-named read-outs stand apart in the source and are kept apart here.

T1: RD-ABD1 of PLS2 (human, UniProt P13796 1-375)
T1 sequence: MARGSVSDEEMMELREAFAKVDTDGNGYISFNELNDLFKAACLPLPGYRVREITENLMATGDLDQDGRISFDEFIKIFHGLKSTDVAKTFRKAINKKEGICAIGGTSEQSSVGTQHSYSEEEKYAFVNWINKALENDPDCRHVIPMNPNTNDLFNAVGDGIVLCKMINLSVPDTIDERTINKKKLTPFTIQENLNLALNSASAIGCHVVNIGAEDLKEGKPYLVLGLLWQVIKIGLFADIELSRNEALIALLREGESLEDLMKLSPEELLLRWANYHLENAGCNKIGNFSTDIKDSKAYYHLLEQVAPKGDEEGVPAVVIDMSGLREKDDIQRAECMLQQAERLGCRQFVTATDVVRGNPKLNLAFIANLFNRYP

B1: ABD2 of PLS2, unlabeled (domain or fragment)
chain: DIDWGALEGETREERTFRNWMNSLGVNPRVNHLYSDLSDALVIFQLYEKIKVPVDWNRVNKPPYPKLGGNMKKLENCNYAVELGKNQAKFSLVGIGGQDLNEGNRTLTLALIWQLMRRYTLNILEEIGGGQKVNDDIIVNWVNETLREAKKSSSISSFKDPKISTSLPVLDLIDAIQPGSINYDLLKTENLNDDEKLNNAKYAISMARKIGARVYALPEDLVEVNPKMVMTVFACLMGKGMKRV
B2: fluorescein-labeled ABD2 of PLS2 (domain or fragment)
chain: B1 chain
modifications: fluorescein-5-maleimide (FM) label
B3: ABD1 of PLS2 (domain or fragment)
chain: EGICAIGGTSEQSSVGTQHSYSEEEKYAFVNWINKALENDPDCRHVIPMNPNTNDLFNAVGDGIVLCKMINLSVPDTIDERTINKKKLTPFTIQENLNLALNSASAIGCHVVNIGAEDLKEGKPYLVLGLLWQVIKIGLFADIELSRNEALIALLREGESLEDLMKLSPEELLLRWANYHLENAGCNKIGNFSTDIKDSKAYYHLLEQVAPKGDEEGVPAVVIDMSGLREKDDIQRAECMLQQAERLGCRQFVTATDVVRGNPKLNLAFIANLFNRYP
B4: full-length PLS2 (plastin 2), wild type (natural protein)
chain: MARGSVSDEEMMELREAFAKVDTDGNGYISFNELNDLFKAACLPLPGYRVREITENLMATGDLDQDGRISFDEFIKIFHGLKSTDVAKTFRKAINKKEGICAIGGTSEQSSVGTQHSYSEEEKYAFVNWINKALENDPDCRHVIPMNPNTNDLFNAVGDGIVLCKMINLSVPDTIDERTINKKKLTPFTIQENLNLALNSASAIGCHVVNIGAEDLKEGKPYLVLGLLWQVIKIGLFADIELSRNEALIALLREGESLEDLMKLSPEELLLRWANYHLENAGCNKIGNFSTDIKDSKAYYHLLEQVAPKGDEEGVPAVVIDMSGLREKDDIQRAECMLQQAERLGCRQFVTATDVVRGNPKLNLAFIANLFNRYPALHKPENQDIDWGALEGETREERTFRNWMNSLGVNPRVNHLYSDLSDALVIFQLYEKIKVPVDWNRVNKPPYPKLGGNMKKLENCNYAVELGKNQAKFSLVGIGGQDLNEGNRTLTLALIWQLMRRYTLNILEEIGGGQKVNDDIIVNWVNETLREAKKSSSISSFKDPKISTSLPVLDLIDAIQPGSINYDLLKTENLNDDEKLNNAKYAISMARKIGARVYALPEDLVEVNPKMVMTVFACLMGKGMKRV

Experiments:
[1] = target: T2, F-actin (skeletal muscle actin) ( (rabbit or chicken skeletal …, UniProt P68135 1-377)); test: fluorescence polarisation
RD-ABD1 of PLS2 [2] = target: T1, RD-ABD1 of PLS2; test: fluorescence polarisation
ABD1 of PLS2 = target: B3; test: fluorescence polarisation
RD-ABD1 of PLS2 [3] = target: T1, RD-ABD1 of PLS2; test: fluorescence polarisation; remark: listed apart in the source
[4] = target: T2, F-actin (skeletal muscle actin); test: fluorescence polarisation; remark: listed apart in the source
[5] = target: T2, F-actin (skeletal muscle actin); test: co-sedimentation

**Q.** B1 was tested. Which Kd [1] did it give?
**A.** The Kd was 3.6 ± 0.3 nM.

**Q.** And the Kd (RD-ABD1 of PLS2 [2])?
**A.** The Kd was 2.9 ± 0.5 nM.

**Q.** And the Kd (ABD1 of PLS2)?
**A.** The Kd was 11.4 ± 0.7 nM.

**Q.** What about the Kd (RD-ABD1 of PLS2 [3]) of the same binder?
**A.** Its Kd is 3 ± 0.9 nM.

**Q.** For B2, which Kd [4] is on record?
**A.** Its Kd is 9.9 ± 3.7 nM.

**Q.** For B3, which Kd [5] is on record?
**A.** The Kd was 2600 ± 1000 nM.

**Q.** How did the Kd [5] turn out when B4 was run?
**A.** The Kd was 5700 ± 1000 nM.
